Test results published in patent publication US20260258084A1, “New Peptides as Selective IL-23 Receptor Antagonists” (Sanofi, priority 2022, published 2026).
Starred links: 1 amine or outer side, 2 acyl side, 3 side chain; linkers in the order of their positions; H or OH if unused. Positions of bridges follow the written chain, without caps; N, C: chain ends. Non-standard residues stand in square brackets, D forms with d. No end group written: not given here. *: point of attachment. Yde = (2S)-2-amino-3-[4-[2-(dimethylamino)ethoxy]phenyl]propanoic acid, CN(C)CCOc1ccc(C[C@H](N[*:1])C(=O)[*:2])cc1; Trp(7-Me) = Cc1cccc2c(C[C@H](N)C(=O)O)c[nH]c12; Trp(1-Me) = Cn1cc(C[C@H](N)C(=O)O)c2ccccc21; 2Nal = N[C@@H](Cc1ccc2ccccc2c1)C(=O)O; εLys = N[C@@H](CCCCN[*:1])C(=O)[*:2]; Palmitoyl = CCCCCCCCCCCCCCCC(=O)*; 3Pal = N[C@@H](Cc1cccnc1)C(=O)O; Dad = desamino-aspartamic acid; Lys(Me) = CNCCCC[C@H](N)C(=O)O; αMeL = CC(C)C[C@](C)(N)C(=O)O; αMeK = C[C@](N)(CCCCN)C(=O)O; NMeC = CN[C@@H](CS)C(=O)O; Thp = NC1(C(=O)O)CCOCC1; Abu = CC[C@H](N)C(=O)O; Aib = CC(C)(N)C(=O)O; Ava = NCCCCC(=O)O; Sar = CNCC(=O)O

T1: IL-23 receptor on the surface of HEK-Blue IL-23 cells (UniProt Q5VWK5 24-629, limits assumed)
T1 sequence (looked up): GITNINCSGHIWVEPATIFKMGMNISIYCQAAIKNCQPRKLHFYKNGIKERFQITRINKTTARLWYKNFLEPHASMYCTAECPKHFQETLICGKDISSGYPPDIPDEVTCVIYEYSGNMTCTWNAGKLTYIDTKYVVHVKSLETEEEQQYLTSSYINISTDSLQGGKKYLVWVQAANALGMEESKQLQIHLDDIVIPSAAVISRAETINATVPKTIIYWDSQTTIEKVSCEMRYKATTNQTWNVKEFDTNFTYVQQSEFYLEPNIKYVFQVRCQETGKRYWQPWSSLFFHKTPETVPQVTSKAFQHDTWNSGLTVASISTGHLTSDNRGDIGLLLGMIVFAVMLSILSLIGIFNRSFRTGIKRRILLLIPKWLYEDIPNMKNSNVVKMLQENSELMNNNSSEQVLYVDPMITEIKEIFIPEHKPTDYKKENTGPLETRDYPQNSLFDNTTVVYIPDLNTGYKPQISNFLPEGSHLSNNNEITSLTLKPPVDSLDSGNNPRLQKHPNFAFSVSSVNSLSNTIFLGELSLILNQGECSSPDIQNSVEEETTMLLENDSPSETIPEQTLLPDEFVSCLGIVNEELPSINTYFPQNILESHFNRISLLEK

B1: Compound of SEQ ID NO: 67 (peptide)
peptide: [Ava]C[εLys](Ac)[Trp(7-Me)]K(Ac)C[Yde][2Nal][αMeK](Palmitoyl)EN[3Pal][Sar]-NH2
modifications: lactam N-10; disulfide 2-6; also: Cys2 carboxyl joined to epsilon-NH2 of Lys3 (isopeptide bond), Lys3 alpha-N acetylated
B2: Compound of SEQ ID NO: 8 (peptide)
peptide: [Ava]CNTWQC[Yde][2Nal][Aib]ENN-NH2
modifications: lactam (positions not given here); disulfide 2-7; not fully specified (bridges); printed as Apt(§1)-C(@2)-N-T-W-Q-C(@2)-Yde-Nal-Aib-E(§1)-N—N—NH2
B3: Compound of SEQ ID NO: 69 (peptide)
peptide: [Dad][NMeC][εLys](Ac)[Trp(7-Me)]LC[Yde][2Nal][αMeL][Lys(Me)]N[3Pal][Sar]-NH2
modifications: lactam (positions not given here); disulfide 2-6; not fully specified (bridges); printed as Dad(§1)-Nmc(§3)(@2)-K[aAc](@3)-Wim-L-C(@2)-Yde-Nal-Mle-Kme(§1)-N-Pal-Sar-NH2; also: Nmc2 carboxyl joined to epsilon-NH2 of Lys3 (isopeptide bond), Lys3 alpha-N acetylated
B4: Compound of SEQ ID NO: 104 (peptide)
peptide: [Dad]CK[Trp(7-Me)]K(Ac)C[Yde][2Nal][Aib]KN[3Pal][Sar]-NH2
modifications: lactam (positions not given here); disulfide 2-6; not fully specified (residue 3, bridges); printed as Dad(§1)-C(§3)(@2)-K[aAc](@3)-Wim-K[Ac]-C(@2)-Yde-Nal-Aib-K(§1)-N-Pal-Sar-NH2; also: K[aAc]: Cys2 bonded to epsilon-NH2 of acetylated Lys3, acetyl presumably on alpha-amine
B5: Compound of SEQ ID NO: 126 (peptide)
peptide: [Ava]CK[Trp(1-Me)]K(Ac)C[Yde][2Nal][Thp]EN[3Pal][Sar]-NH2
modifications: lactam N-10; disulfide 2-6; not fully specified (residue 3); printed as Apt(§1)-C(§3)(@2)-K[aAc](@3)-Wme-K[Ac]-C(@2)-Yde-Nal-ThpE(§1)-N-Pal-Sar-NH2; also: K[aAc]: Cys2 bonded to epsilon-NH2 of acetylated Lys3, acetyl presumably on alpha-amine
B6: Compound of SEQ ID NO: 122 (peptide)
peptide: [Dad][Abu]K[Trp(7-Me)]K(Ac)C[Yde][2Nal][Thp]KN[3Pal][Sar]-NH2
modifications: lactam (positions not given here); thioether 2-6; not fully specified (residue 3, bridges); printed as Dad(§1)-Abu(§3)(@2)-K[aAc](@3)-Wim-K[Ac]-C(@2)-Yde-Nal-Thp-K(§1)-N-Pal-Sar-NH2; also: K[aAc]: Abu2 bonded to epsilon-NH2 of acetylated Lys3, acetyl presumably on alpha-amine
B7: Compound of SEQ ID NO: 72 (peptide)
peptide: [Ava]C[εLys](Ac)[Trp(7-Me)]K(Ac)C[Yde][2Nal][Aib]EN[3Pal][Sar]-NH2
modifications: lactam N-10; disulfide 2-6; also: Cys2 carboxyl joined to epsilon-NH2 of Lys3 (isopeptide bond), Lys3 alpha-N acetylated
B8: Compound of SEQ ID NO: 106 (peptide)
peptide: [Dad]CK[Trp(7-Me)]K(Ac)C[Yde][2Nal][αMeL]KN[3Pal][Sar]-NH2
modifications: lactam (positions not given here); disulfide 2-6; not fully specified (residue 3, bridges); printed as Dad(§1)-C(§3)(@2)-K[aAc](@3)-Wim-K[Ac]-C(@2)-Yde-Nal-Mle-K(§1)-N-Pal-Sar-NH2; also: K[aAc]: Cys2 bonded to epsilon-NH2 of acetylated Lys3, acetyl presumably on alpha-amine
B9: Compound of SEQ ID NO: 71 (peptide)
peptide: [Dad]CNT[Trp(7-Me)]QC[Yde][2Nal][Aib]KN[3Pal]K-NH2
modifications: lactam (positions not given here); disulfide 2-7; not fully specified (residue 14, bridges); printed as Dad(§1)-C(@2)-N-T-Wim-Q-C(@2)-Yde-Nal-Aib-K(§1)-N-Pal-K[Sema]-NH2
B10: Compound of SEQ ID NO: 66 (peptide)
peptide: [Ava]C[εLys](Ac)[Trp(7-Me)]K(Ac)C[Yde][2Nal][Thp]EN[3Pal][Sar]-NH2
modifications: lactam N-10; disulfide 2-6; also: Cys2 carboxyl joined to epsilon-NH2 of Lys3 (isopeptide bond), Lys3 alpha-N acetylated
B11: Compound of SEQ ID NO: 74 (peptide)
peptide: [Dad][NMeC]K[Trp(7-Me)]K(Ac)C[Yde][2Nal][Thp][Lys(Me)]N[3Pal][Sar]-NH2
modifications: lactam 1-10; disulfide 2-6; not fully specified (residue 3); printed as Dad(§1)-Nmc(§3)(@2)-K[aAc](@3)-Wim-K[Ac]-C(@2)-Yde-Nal-Thp-Kme(§1)-N-Pal-Sar-NH2; also: Nmc2 carbonyl joined by amide bond to epsilon-NH2 of Lys3 (branched isopeptide), Lys3 alpha-NH2 acetylated
B12: Compound of SEQ ID NO: 64 (peptide)
peptide: [Ava]CNT[Trp(7-Me)]K(Ac)C[Yde][2Nal][Aib]EN[3Pal][Sar]-NH2
modifications: lactam N-11; disulfide 2-7
SMILES: CC(=O)NCCCC[C@@H]1NC(=O)[C@H](Cc2c[nH]c3c(C)cccc23)NC(=O)[C@H]([C@@H](C)O)NC(=O)[C@H](CC(N)=O)NC(=O)[C@@H]2CSSC[C@H](NC1=O)C(=O)N[C@@H](Cc1ccc(OCCN(C)C)cc1)C(=O)N[C@@H](Cc1ccc3ccccc3c1)C(=O)NC(C)(C)C(=O)N[C@H](C(=O)N[C@@H](CC(N)=O)C(=O)N[C@@H](Cc1cccnc1)C(=O)N(C)CC(N)=O)CCC(=O)NCCCCC(=O)N2
B13: Compound of SEQ ID NO: 102 (peptide)
peptide: [Dad]CNT[Trp(7-Me)]K(Ac)C[Yde][2Nal][Thp]KN[3Pal][Sar]-NH2
modifications: lactam (positions not given here); disulfide 2-7; not fully specified (bridges); printed as Dad(§1)-C(@2)-N-T-Wim-K[Ac]-C(@2)-Yde-Nal-Thp-K(§1)-N-Pal-Sar-NH2
B14: Compound of SEQ ID NO: 103 (peptide)
peptide: [Dad]CNT[Trp(7-Me)]K(Ac)C[Yde][2Nal][αMeL]KN[3Pal][Sar]-NH2
modifications: lactam (positions not given here); disulfide 2-7; not fully specified (bridges); printed as Dad(§1)-C(@2)-N-T-Wim-K[Ac]-C(@2)-Yde-Nal-Mle-K(§1)-N-Pal-Sar-NH2
B15: Compound of SEQ ID NO: 68 (peptide)
peptide: [Dad]C[εLys](Ac)[Trp(7-Me)]LC[Yde][2Nal][αMeL][Lys(Me)]N[3Pal][Sar]-NH2
modifications: lactam (positions not given here); disulfide 2-6; not fully specified (bridges); printed as Dad(§1)-C(§3)(@2)-K[aAc](@3)-Wim-L-C(@2)-Yde-Nal-Mle-Kme(§1)-N-Pal-Sar-NH2; also: Cys2 bonded to ε-NH2 of Lys3 (isopeptide backbone)
B16: Compound of SEQ ID NO: 105 (peptide)
peptide: [Dad]CK[Trp(7-Me)]K(Ac)C[Yde][2Nal][Thp]KN[3Pal][Sar]-NH2
modifications: lactam (positions not given here); disulfide 2-6; not fully specified (residue 3, bridges); printed as Dad(§1)-C(§3)(@2)-K[aAc](@3)-Wim-K[Ac]-C(@2)-Yde-Nal-Thp-K(§1)-N-Pal-Sar-NH2; also: K[aAc]: Cys2 bonded to epsilon-NH2 of acetylated Lys3, acetyl presumably on alpha-amine
B17: Compound of SEQ ID NO: 73 (peptide)
peptide: [Ava]C[εLys](Ac)[Trp(7-Me)]K(Ac)C[Yde][2Nal][αMeL]EN[3Pal][Sar]-NH2
modifications: lactam N-10; disulfide 2-6; also: Cys2 carboxyl joined to epsilon-NH2 of Lys3 (isopeptide bond), Lys3 alpha-N acetylated

What follows are binders tested against T1, IL-23 receptor on the surface of … (assay: cell-based or functional assay).

Row | pSTAT3 (nM) | Binder
1 | 22.6 nM | B1
2 | 5.54 nM | B2
3 | 3.07 nM | B3
4 | 0.1 nM | B4
5 | 0.11 nM | B5
6 | 0.37 nM | B6
7 | 0.12 nM | B7
8 | 0.13 nM | B8
9 | 2.35 nM | B9
10 | 0.15 nM | B10
11 | 0.12 nM | B11
12 | 0.22 nM | B12
13 | 0.09 nM | B13
14 | 0.11 nM | B14
15 | 2.69 nM | B15
16 | 0.1 nM | B16
17 | 0.1 nM | B17
18 | 3.94 nM | XXKXLCXXXXAXX (Dad(§1)-Nmc(§3)(@2)-K[aAc](@3)-Wim-L-C(@2)-Yde-Nal-Mie-Kme(§1)-A-Pal-Sar-NH2) [Compound of SEQ ID NO: 70]
